B1: NRC3_wobSeed53_DR2_C8G_o1 (dsDNA)
DNA 1: GCCCTTAGGGGTCACGAGGTTATAGCACGACGAGCGGCGATTGACAGCGTAGAATGAAGG
DNA 2: CCTTCATTCTACGCTGTCAATCGCCGCTCGTCGTGCTATAACCTCGTGACCCCTAAGGGC
B2: NRC3_wobSeed28_DR1_C12T_o1 (dsDNA)
DNA 1: GCCCTACTGGGTCAAAGGTCATTGATTCCAATGCTCGCGATTGACAGCGTAGAATGAAGG
DNA 2: CCTTCATTCTACGCTGTCAATCGCGAGCATTGGAATCAATGACCTTTGACCCAGTAGGGC
B3: NRC3_wobSeed97_DR4_A17T_o1 (dsDNA)
DNA 1: GCCAAACTAGGTCACGTAAGGTCAAAGTCGAATGACGCGATTGACAGCGTAGAATGAAGG
DNA 2: CCTTCATTCTACGCTGTCAATCGCGTCATTCGACTTTGACCTTACGTGACCTAGTTTGGC
B4: NRC3_wobSeed46_DR1_G13C_o1 (dsDNA)
DNA 1: GCTTACCAAGGTCAAAGGTCGTTGATGCACGCCTTGGCGATTGACAGCGTAGAATGAAGG
DNA 2: CCTTCATTCTACGCTGTCAATCGCCAAGGCGTGCATCAACGACCTTTGACCTTGGTAAGC
B5: NRC3_wobSeed34_DR1_G14A_o1 (dsDNA)
DNA 1: GCATCGAAAGGTCAAAGGTGAGTATACCCACCCGAAGCGATTGACAGCGTAGAATGAAGG
DNA 2: CCTTCATTCTACGCTGTCAATCGCTTCGGGTGGGTATACTCACCTTTGACCTTTCGATGC
B6: NRC3_wobSeed42_DR1_A8G_o1 (dsDNA)
DNA 1: GCTATACGGGGTCAAAGGCCAGAGTACGAATGTCGAGCGATTGACAGCGTAGAATGAAGG
DNA 2: CCTTCATTCTACGCTGTCAATCGCTCGACATTCGTACTCTGGCCTTTGACCCCGTATAGC
B7: NRC3_wobSeed106_DR4_G15T_o1 (dsDNA)
DNA 1: GCCTCGAAAGGTCGTTTGAGGTGAGTATACGGATAAGCGATTGACAGCGTAGAATGAAGG
DNA 2: CCTTCATTCTACGCTGTCAATCGCTTATCCGTATACTCACCTCAAACGACCTTTCGAGGC
B8: NRC3_wobSeed26_DR1_T9A_o1 (dsDNA)
DNA 1: GCTCTAGTAGGTCAAAGGTCACACACTCGAAATGCGGCGATTGACAGCGTAGAATGAAGG
DNA 2: CCTTCATTCTACGCTGTCAATCGCCGCATTTCGAGTGTGTGACCTTTGACCTACTAGAGC
B9: NRC3_wobSeed26_DR1_T9G_o1 (dsDNA)
DNA 1: GCTCTAGTGGGTCAAAGGTCACACACTCGAAATGCGGCGATTGACAGCGTAGAATGAAGG
DNA 2: CCTTCATTCTACGCTGTCAATCGCCGCATTTCGAGTGTGTGACCTTTGACCCACTAGAGC
B10: NRC3_wobSeed45_DR1_A20T_o1 (dsDNA)
DNA 1: GCTGTCAAAGTTCAAAGGTTACGTAAGTATCCACACGCGATTGACAGCGTAGAATGAAGG
DNA 2: CCTTCATTCTACGCTGTCAATCGCGTGTGGATACTTACGTAACCTTTGAACTTTGACAGC
B11: NRC3_wobSeed45_DR1_T11G_o1 (dsDNA)
DNA 1: GCTGTCAAAGGTCAAAGGTAACGTAAGTATCCACACGCGATTGACAGCGTAGAATGAAGG
DNA 2: CCTTCATTCTACGCTGTCAATCGCGTGTGGATACTTACGTTACCTTTGACCTTTGACAGC
B12: NRC3_wobSeed109_DR4_T26A_o1 (dsDNA)
DNA 1: GCCGTCCAAGGTCATAGGAGGTCAGAGAAGACAGATGCGATTGACAGCGTAGAATGAAGG
DNA 2: CCTTCATTCTACGCTGTCAATCGCATCTGTCTTCTCTGACCTCCTATGACCTTGGACGGC

What was measured:
PXR:RXRa = PXR:RXRa (Homo sapiens, UniProt O75469;P19793 full;full); test: no ligand; PBM; 270 nM : 90 nM RXRa; PBS pH 7.4, 2% milk, 0.02% Triton X-100, 1 mM DTT, BSA, 0.4 mg/ml salmon testes DNA; conditions: tags: His kept;His cleaved; copies: 1;1; label: surface-attached array probe
Outline: (§1)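 Custom Agilent 4×180K protein-binding microarrays carried double-stranded probes. Their 34-nt variable regions held direct-repeat seeds, single-nucleotide variants, half-site ablations and random human genomic background sequences. Arrays were incubated 1 h with ligand-free nuclear receptor dimers in PBS pH 7.4, 2% milk, 0.02% Triton X-100, 1 mM DTT, 0.2 mg/mL BSA and 0.4 mg/ml salmon testes DNA. Antibodies against each partner (one per run) detected binding, and scanned fluorescence was regression-normalized. Binding z-scores use random background probes as reference.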

RARg:RXRa = RARg:RXRa (Homo sapiens, UniProt P13631;P19793 full;full); test: as above; conditions: tags: His kept;His cleaved; copies: 1;1; label: surface-attached array probe
Outline: as §1

VDR:RXRa = VDR:RXRa (Homo sapiens, UniProt P11473;P19793 full;full); test: as above; conditions: tags: His kept;His cleaved; copies: 1;1; label: surface-attached array probe
Outline: as §1

RARb:RXRa = RARb:RXRa (Homo sapiens, UniProt P10826;P19793 full;full); test: as above; conditions: tags: His kept;His cleaved; copies: 1;1; label: surface-attached array probe
Sequence of RARb:RXRa (P10826 whole entry, chain 1 of 2): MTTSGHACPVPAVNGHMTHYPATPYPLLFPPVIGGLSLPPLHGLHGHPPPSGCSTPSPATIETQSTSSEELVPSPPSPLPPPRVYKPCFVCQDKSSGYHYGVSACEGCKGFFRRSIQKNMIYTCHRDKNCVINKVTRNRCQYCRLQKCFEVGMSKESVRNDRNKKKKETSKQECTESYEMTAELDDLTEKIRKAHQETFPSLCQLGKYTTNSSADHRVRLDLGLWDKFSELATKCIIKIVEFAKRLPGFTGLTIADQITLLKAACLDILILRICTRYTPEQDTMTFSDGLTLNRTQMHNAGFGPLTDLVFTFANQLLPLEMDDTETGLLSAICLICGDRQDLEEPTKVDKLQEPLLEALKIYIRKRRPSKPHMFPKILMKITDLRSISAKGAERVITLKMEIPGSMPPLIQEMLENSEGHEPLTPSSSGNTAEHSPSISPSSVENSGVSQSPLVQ
Sequence of RARb:RXRa (P19793 whole entry, chain 2 of 2): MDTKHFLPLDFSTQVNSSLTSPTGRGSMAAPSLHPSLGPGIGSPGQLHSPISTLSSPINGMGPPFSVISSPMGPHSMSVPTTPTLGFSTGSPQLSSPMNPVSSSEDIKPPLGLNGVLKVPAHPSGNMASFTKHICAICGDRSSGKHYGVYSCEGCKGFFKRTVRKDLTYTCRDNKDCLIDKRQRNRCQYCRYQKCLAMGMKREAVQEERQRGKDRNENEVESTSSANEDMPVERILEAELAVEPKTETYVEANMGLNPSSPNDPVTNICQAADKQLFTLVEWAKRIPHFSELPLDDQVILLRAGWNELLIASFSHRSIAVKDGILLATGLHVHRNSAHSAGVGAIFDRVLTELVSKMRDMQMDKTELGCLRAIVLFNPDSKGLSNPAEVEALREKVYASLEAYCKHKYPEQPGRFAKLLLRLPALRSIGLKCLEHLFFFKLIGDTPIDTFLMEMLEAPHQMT
Outline: as §1

FXR:RXRa = FXR:RXRa (Homo sapiens, UniProt Q96RI1;P19793 full;full); test: as above; conditions: tags: His kept;His cleaved; copies: 1;1; label: surface-attached array probe
Sequence of FXR:RXRa (Q96RI1 whole entry, chain 1 of 2): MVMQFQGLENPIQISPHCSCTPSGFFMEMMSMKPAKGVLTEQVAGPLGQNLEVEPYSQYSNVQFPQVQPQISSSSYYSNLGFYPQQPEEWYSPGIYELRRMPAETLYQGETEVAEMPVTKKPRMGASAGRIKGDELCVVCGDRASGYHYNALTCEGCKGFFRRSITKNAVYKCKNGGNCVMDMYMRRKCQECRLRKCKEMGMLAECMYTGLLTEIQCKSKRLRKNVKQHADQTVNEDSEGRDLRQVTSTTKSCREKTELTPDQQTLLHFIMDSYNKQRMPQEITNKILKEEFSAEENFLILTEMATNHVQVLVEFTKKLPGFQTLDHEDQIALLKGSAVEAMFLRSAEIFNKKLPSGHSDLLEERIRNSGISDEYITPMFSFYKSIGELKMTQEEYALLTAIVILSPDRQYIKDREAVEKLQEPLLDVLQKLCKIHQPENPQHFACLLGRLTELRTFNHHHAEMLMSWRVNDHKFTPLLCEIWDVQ
Sequence of FXR:RXRa (P19793 whole entry, chain 2 of 2): as the sequence (P19793 whole entry, chain 2 of 2) above
Outline: as §1

LXRb:RXRa = LXRb:RXRa (Homo sapiens, UniProt P55055;P19793 full;full); test: as above; conditions: tags: His kept;His cleaved; copies: 1;1; label: surface-attached array probe
Outline: as §1

PPARa:RXRa = PPARa:RXRa (Homo sapiens, UniProt Q07869;P19793 full;full); test: as above; conditions: tags: GST kept;His cleaved; copies: 1;1; label: surface-attached array probe
Outline: as §1

RARa:RXRa = RARa:RXRa (Homo sapiens, UniProt P10276;P19793 full;full); test: as above; conditions: tags: His kept;His cleaved; copies: 1;1; label: surface-attached array probe
Sequence of RARa:RXRa (P10276 whole entry, chain 1 of 2): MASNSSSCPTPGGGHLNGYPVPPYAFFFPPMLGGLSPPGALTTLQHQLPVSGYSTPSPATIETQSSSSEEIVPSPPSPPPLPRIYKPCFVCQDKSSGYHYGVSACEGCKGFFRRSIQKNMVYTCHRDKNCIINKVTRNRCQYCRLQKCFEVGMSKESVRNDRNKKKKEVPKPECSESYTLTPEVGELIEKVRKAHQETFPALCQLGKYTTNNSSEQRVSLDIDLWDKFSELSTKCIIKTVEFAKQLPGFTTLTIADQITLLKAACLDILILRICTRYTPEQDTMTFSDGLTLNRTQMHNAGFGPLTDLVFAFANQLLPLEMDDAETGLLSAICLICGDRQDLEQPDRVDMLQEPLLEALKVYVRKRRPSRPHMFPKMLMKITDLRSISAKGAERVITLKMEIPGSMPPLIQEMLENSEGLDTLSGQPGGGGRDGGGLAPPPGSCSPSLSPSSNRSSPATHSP
Sequence of RARa:RXRa (P19793 whole entry, chain 2 of 2): as the sequence (P19793 whole entry, chain 2 of 2) above
Outline: as §1

LXRa:RXRa = LXRa:RXRa (Homo sapiens, UniProt Q13133;P19793 full;full); test: as above; conditions: tags: His kept;His cleaved; copies: 1;1; label: surface-attached array probe
Outline: as §1

PPARg:RXRa = PPARg:RXRa (Homo sapiens, UniProt P37231;P19793 full;full); test: no ligand; PBM; 180 nM : 90 nM RXRa; PBS pH 7.4, 2% milk, 0.02% Triton X-100, 1 mM DTT, BSA, 0.4 mg/ml salmon testes DNA; conditions: tags: His kept;His cleaved; copies: 1;1; label: surface-attached array probe
Sequence of PPARg:RXRa (P37231 29-505, chain 1 of 2): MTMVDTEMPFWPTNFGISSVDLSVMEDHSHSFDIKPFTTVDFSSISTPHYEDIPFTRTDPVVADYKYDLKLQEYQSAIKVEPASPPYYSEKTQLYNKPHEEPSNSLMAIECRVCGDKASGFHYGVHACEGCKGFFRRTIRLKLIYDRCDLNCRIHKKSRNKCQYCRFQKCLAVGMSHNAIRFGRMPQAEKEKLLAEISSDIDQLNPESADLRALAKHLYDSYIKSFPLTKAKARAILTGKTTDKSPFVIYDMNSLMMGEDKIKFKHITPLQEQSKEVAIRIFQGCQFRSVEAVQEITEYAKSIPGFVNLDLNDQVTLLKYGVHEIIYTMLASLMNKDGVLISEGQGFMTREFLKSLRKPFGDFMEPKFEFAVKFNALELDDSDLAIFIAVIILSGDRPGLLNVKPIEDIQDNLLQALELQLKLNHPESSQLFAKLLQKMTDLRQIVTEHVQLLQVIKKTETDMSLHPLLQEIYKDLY
Sequence of PPARg:RXRa (P19793 whole entry, chain 2 of 2): as the sequence (P19793 whole entry, chain 2 of 2) above

RXRa = RXRa (Homo sapiens, UniProt P19793); test: no ligand; PBM; 180 nM; PBS pH 7.4, 2% milk, 0.02% Triton X-100, 1 mM DTT, BSA, 0.4 mg/ml salmon testes DNA; conditions: tags: His cleaved; chain copies: 2; label: surface-attached array probe
Sequence of RXRa (P19793 whole entry): as the sequence (P19793 whole entry, chain 2 of 2) above
THRa:RXRa = THRa:RXRa (Homo sapiens, UniProt P10827;P19793 full;full); test: no ligand; PBM; 90 nM : 90 nM RXRa; PBS pH 7.4, 2% milk, 0.02% Triton X-100, 1 mM DTT, BSA, 0.4 mg/ml salmon testes DNA; conditions: tags: His kept;His cleaved; copies: 1;1; label: surface-attached array probe

Binder	binding signal (PXR:RXRa)	binding signal (RARg:RXRa)	binding signal (VDR:RXRa)	binding signal (RARb:RXRa)	binding signal (FXR:RXRa)	binding signal (LXRb:RXRa)	binding signal (PPARa:RXRa)	binding signal (RARa:RXRa)	binding signal (LXRa:RXRa)	binding signal (PPARg:RXRa)	binding signal (RXRa)	binding signal (THRa:RXRa)
B1	6.73 PBM z-score against 500 random probes	8.51 PBM z-score against 500 random probes	7.15 PBM z-score against 500 random probes	5.93 PBM z-score against 500 random probes	8.88 PBM z-score against 500 random probes	6.15 PBM z-score against 500 random probes	7.21 PBM z-score against 500 random probes	8.32 PBM z-score against 500 random probes	7.02 PBM z-score against 500 random probes	10.3 PBM z-score against 500 random probes	10.1 PBM z-score against 500 random probes	
B2	7.26 PBM z-score against 500 random probes	8.01 PBM z-score against 500 random probes	6.8 PBM z-score against 500 random probes	5.54 PBM z-score against 500 random probes		6.34 PBM z-score against 500 random probes	7.41 PBM z-score against 500 random probes	8.75 PBM z-score against 500 random probes	6.6 PBM z-score against 500 random probes	13.5 PBM z-score against 500 random probes	9.56 PBM z-score against 500 random probes	
B3												5.77 PBM z-score against 500 random probes
B4	7 PBM z-score against 500 random probes	7.78 PBM z-score against 500 random probes		5.44 PBM z-score against 500 random probes	8.17 PBM z-score against 500 random probes	6.04 PBM z-score against 500 random probes	6.85 PBM z-score against 500 random probes	8.61 PBM z-score against 500 random probes	7.04 PBM z-score against 500 random probes	10.5 PBM z-score against 500 random probes	9.65 PBM z-score against 500 random probes	
B5	6.57 PBM z-score against 500 random probes	8.43 PBM z-score against 500 random probes		6.19 PBM z-score against 500 random probes	8.87 PBM z-score against 500 random probes	6.85 PBM z-score against 500 random probes	7.53 PBM z-score against 500 random probes	8.66 PBM z-score against 500 random probes	7.65 PBM z-score against 500 random probes	10 PBM z-score against 500 random probes	10.1 PBM z-score against 500 random probes	
B6	6.54 PBM z-score against 500 random probes	7.59 PBM z-score against 500 random probes	6.76 PBM z-score against 500 random probes		8.52 PBM z-score against 500 random probes	7.1 PBM z-score against 500 random probes	7.07 PBM z-score against 500 random probes	7.79 PBM z-score against 500 random probes	7.28 PBM z-score against 500 random probes	10.7 PBM z-score against 500 random probes	9.41 PBM z-score against 500 random probes	
B7												5.63 PBM z-score against 500 random probes
B8	7.41 PBM z-score against 500 random probes	8.88 PBM z-score against 500 random probes	6.79 PBM z-score against 500 random probes	5.79 PBM z-score against 500 random probes	8.25 PBM z-score against 500 random probes	6.9 PBM z-score against 500 random probes	7.46 PBM z-score against 500 random probes	9.28 PBM z-score against 500 random probes	7.19 PBM z-score against 500 random probes	14.4 PBM z-score against 500 random probes	10.5 PBM z-score against 500 random probes	
B9	6.94 PBM z-score against 500 random probes	8.6 PBM z-score against 500 random probes	7 PBM z-score against 500 random probes	5.62 PBM z-score against 500 random probes		6.79 PBM z-score against 500 random probes	7.42 PBM z-score against 500 random probes	8.89 PBM z-score against 500 random probes	6.72 PBM z-score against 500 random probes	13.8 PBM z-score against 500 random probes	10.2 PBM z-score against 500 random probes	
B10	6.87 PBM z-score against 500 random probes	7.83 PBM z-score against 500 random probes		5.55 PBM z-score against 500 random probes		5.93 PBM z-score against 500 random probes	6.95 PBM z-score against 500 random probes	8.47 PBM z-score against 500 random probes	7.17 PBM z-score against 500 random probes	9.98 PBM z-score against 500 random probes	9.74 PBM z-score against 500 random probes	
B11	6.66 PBM z-score against 500 random probes	8.53 PBM z-score against 500 random probes		6.49 PBM z-score against 500 random probes	9.11 PBM z-score against 500 random probes	6.94 PBM z-score against 500 random probes	7.31 PBM z-score against 500 random probes	8.2 PBM z-score against 500 random probes	7.81 PBM z-score against 500 random probes	12.1 PBM z-score against 500 random probes	10.1 PBM z-score against 500 random probes	
B12												5.62 PBM z-score against 500 random probes

— article PMC6555819, “Comprehensive study of nuclear receptor DNA binding provides a revised framework for understanding receptor specificity”
